{"source": "paper PMC12607895", "about": "“CD46 is a cellular receptor for species D human adenovirus” (mBio, 2025)", "target": "HAdV-C5 virion (human adenovirus C5 (HAdV-C5), UniProt P04133 1-952; P12538 1-571; P11818 1-581, whole virion; only the major capsid proteins listed, minor/core proteins and DNA not named)", "assay": "SPR; Biacore T200; CD46 or CAR amine-coupled to a CM5 chip (2,390-2,640 RU CD46, 2,380-2,870 RU CAR); whole virions as analyte, twofold series 50-12.5 µg/mL, 120 s at 30 µL/min; 25°C, HBS-EP+ (10 mM HEPES, 150 mM NaCl, 3 mM EDTA, 0.005% P20, pH 7.4); performed once", "conditions": "both partners purified"}
{"binder": "coxsackievirus and adenovirus receptor (CAR) (receptor, coxsackievirus and adenovirus receptor (CAR), coupled to the CM5 sensor chip; also called CXADR) LSITTPEEMIEKAKGETAYLPCKFTLSPEDQGPLDIEWLISPADNQKVDQVIILYSGDKIYDDYYPDLKGRVHFTSNDLKSGDASINVTNLQLSDIGTYQCKVKKAPGVANKKIHLVVLVKPSGARCYVDGSEEIGSDFKIKCEPKEGSLPLQYEWQKLSDSQKMPTSWLAEMTSSVISVKNASSEYSGTYSCTVRNRVGSDQCLLRLNVVPPSNKAGLIAGAIIGTLLALALIGLIIFCCRKKRREEKYEKEVHHDIREDVPPPKSRTSTARSYIGSNHSSLGSMSPSNMEGYSKTQYNQVPSEDFERTPQSPTLPPAKVAAPNLSRMGAIPVMIPAQSKDGSIV", "values": [{"measurement": "Kd", "result": 1.1, "unit": "pM"}]}
